The record followed here is the domain aggregation screens of Martell et al. (2025).

The nature of the data set: soluble fraction after stress (log2 fold change); higher = more stays soluble; pooled small domains, quantitative proteomics. Particulars: stress: pH 4. A digest of the protocol: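 Pooled custom libraries of small protein domains were stressed at pH 4 and then measured by high-throughput quantitative proteomics. The fold change in the amount of each domain that stays soluble after the acid stress serves as a measure of aggregation propensity. Fold changes are given on a log2 scale, and higher values mean more of the domain stayed soluble.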
For “HMRTSIWTAIAHSLRSDIGSGVYGPDDKLPTESALAARFGVNRHTVRHAIKALTDEGLVLPRRGAGVFVTS”, the “soluble fraction (log2)” value was -0.207.
As for “HMRTSPGADYEKTYYTIQSGDNLGAIAEKMGVSVADLKDWNDISGTKIYAGKKLVIYVKKGST”, the “soluble fraction (log2)” value was -0.209.
To “HMRTTTGSEGMIGSIGKAKTDLAPDGKIFIHGELWDATSSSPVSAGQKIEVTQIEGLKLHVKPVL” belongs 0.12; to “HMRTVLSDETYLRIREMLLTHDIAPGERINIDALARELDVSQTPVREALARLESEDLVTKEPLRGYTATK”, -0.123; to “HMRTYEHALTEEEKELILIVSNLSEYKSLPPSQIVPKLADLGIYIASESSFYRVLRAHNQLHHRGR”, -1.27.
In the case of “HMRTYYEILGVSKNASLHEIQKAYRELALKYHPKNNSDPTAEEKFTQINEAYTHLSDAARRRSYDDL”, the “soluble fraction (log2)” value came to 0.362.
To “HMRVGADLTQRERELLALMAQGMSNQEIAKRLEIAVPTVKFHITNILDKLQVGNRTEAVIAALEHKLVP” belongs -0.767; to “HMRVKLVKKSILASGGENIRVDKFLSNHILTMTRTQIKKLFLDGLVQVNKSFVKPGSILKGNEIITFSIPE”, -0.412.
On to “HMRVNINVSENILDWVMKRVNPSVLSSKQGELLYAWKEGRKVPTYNQIEKMSKVTGIPLGYFFLEKPPVE”, for which the “soluble fraction (log2)” value came to 0.411.
Turning to “HMRVPQWLVDKIAAAGIDTHRSGPALKALAAKAGTPEQLDQAIARAKALRRRTGSTQSLNVGLLGSILEGT”, the “soluble fraction (log2)” value is -0.0808.
As for “HMRVQELARDLGVEADTLIALLRQMGIPVTGARSAINDAQQAKVLAKIERERRAGHSDPAKAIQAVLEEAS”, the “soluble fraction (log2)” value was found to be 0.0597.
As for “HMRVSNADALIGRRGKANSDIRRGDYGWVAIDGDVWKSKLADDITEDIPMGAIVEVLSRDSIILTVKP”, the “soluble fraction (log2)” value is -1.08.
In the case of “HMRWAAIMGREVAAHSTPESLVEGKLHIRTDTTAWATQLRLMSADIVRRLNEVLGEGTVLEVDVRG”, the “soluble fraction (log2)” value is -1.12.
Regarding “HMRWSDQKEIVTLSLDHVLVEKGRKTKEYSWREFRTFTAFEIKKSSKDQINLGFKSKGNTVIIGNF”, the “soluble fraction (log2)” value was -0.438.
Turning to “HMSAAELFEERQRQYLRGRKSTKNIADNHGTIILRAGETITDQAIDKAKVAGKLVELVMNNE”, the “soluble fraction (log2)” value was found to be 0.144.
To “HMSADDSDDRKGIDAWLTQLLANGSVKATEVYSAADAAGYSKDQAKRAKRRLAIEAVREAMDGPWFWRLD” belongs -0.742; to “HMSAEDQRRASQEAAYRFMQVMAGNEAGFEDAARALFAGDNHRFEVLIQSWPDDVRDHVSLLSVDAFA”, -1.78.
The figure for “HMSAEVMLRRLIDENDPSSENARYILAVMLERKKILAPVDVKNEKKSKMLFYEHQKTGEAFIVRDP” is -0.17; for “HMSAEVSEIEIQRIISYYRNQNGVPDKYNEIFDRIAAQYTDEQLKVISNFLPSDVKQYLSFNNEKYKSLG” it is -0.955.
The figure for “HMSAGKKSFTNSEFRRFLDALGEGLIVKHKKLGEGVVVEIRGDKAVIQFGDEQRLYELKTLYEYDLLR” is -0.874; for “HMSALAQDGDLVQLQGAGYKSHILRLKAGEVLQTHRGVIQHDAVIGQPWGARLQSHTGSPFYLFQPGLADL” it is -0.187.
“HMSALTELPVKTVNGKKYHYYVVKQHETVYALSKRFGITPEQLIKYNPSAEDGLQIDQELLFPATEI”: the “soluble fraction (log2)” value is -0.282.
To “HMSANVSMEEALRRTSQAHSLAGKWMRRVLQMAQGRDLIEQMQREAQEAHLPELIGMSVQLEFIRRG” belongs -0.363.
The figure for “HMSAPEGWMNRGDLRDNFRIQYPVTDRIIASYRESHPEWFGTYLSKTSKSLEYFHPDLVAKVREAAN” is -0.145; for “HMSAPQKWDGSLQDFIRFKQEAKTLMDNIPNKRLALNAILETISDGKMRKRLAKYDGPESALKSLELEFGN” it is 0.0286.
To “HMSAQDLIVRRDSARIEARVTEISPTEIRYKRASNPDGPTYVLPLGDVRSIRYANGEEEVFAPA” belongs -0.0969.
For the sequence “HMSAQQTFLRDAMRRLNMTRDSFAERIGVRRRALDTWLLPEDSSEYRTMPSIVEKFVGEILGREA”, the “soluble fraction (log2)” value is 0.112.
On to “HMSARKVTVALHTRDHADRLRRLLKHEGVSADLVAARLSHKLTDHPIEVRVNEDDIPAVLRIIENIEIF”, for which the “soluble fraction (log2)” value was -0.707.
The figure for “HMSASLPAAVEDPDLPYRVGAKLRHARWGEGLLVGIQREGSDVIATVHFASVGRKRLSLQYAHLEE” is -0.785; for “HMSATIMVLRASEDIPVGTEIKDNHLTTVEVGSYGLPEGAINDKDTVLGKVAQTNIIKGDYFFPQKLGG” it is -1.18; for “HMSDAQIKASINDLWFKYNLETFAKLNLNVNQGRVLVTGIVQNPEHRLEAIRLVWTVDGVQQVINEIQVAE” it is -1.23.
The figure for “HMSDDIPVHYRLDVNDAARALKLLTDNGFSAETAESGLNVYMTRLQSAEAARLLVENNIAVYGLTAV” is -0.196.
Regarding “HMSDDLIILGYSMLNNALKAFHIDPDSIKKKHWDKLAQDYHLKNKNQILTDIALGKRVNIMVAHQLTTIMD”, the “soluble fraction (log2)” value is -1.32.
To “HMSDDSYLVALAEAYKNATSWDIRRQVLSIMTGVSSYKEISRYIPGLTQYRLSISNLHRLQYGRAAPVP” belongs -0.217; to “HMSDEAGKVLQLLRENGGYLPYNDRSDPEDIYAFFSMSKKTFKMTAGNLYKQKKIIFTNTGIKLTE”, 0.317.
For “HMSDEVNTDKAFRAIDSTLNRNVKGIAPRDHTLLRNTMITYFKSNDYIDYDTMIQSTLENYKPTELEQDKM”, the “soluble fraction (log2)” value came to 0.135.
Turning to “HMSDGHLIKVLEVLDGGEAFLGRTANGGTARFSLGQLADIRRGSVVFVSEDRWEVVPDSAWPEI”, the “soluble fraction (log2)” value was -1.29.
The figure for “HMSDGIPDLRNLNFLSPQEGDYLNESDRVFGVTINGDGQAYPLRIVNAHEMVNDTLGGEPISLM” is -0.34; for “HMSDHKNANFTKVVKVAQELLQDEDDKAGITPTLIEEKISAVLAMNRRWAEGLDRAAVADELIRRFSIW” it is -0.951.
Take “HMSDIATLVPGPTDAELAASALRGLDAALDADTPVRLSLGEPGGEVEVPRSVLAALARVLDSFAHGEGVTL”: the “soluble fraction (log2)” value is -0.443.
The figure for “HMSDIISEIESQVMFKLATYEITNATEKMIEALINSEINDRRTLGFPIPNEQGRIFLVRSIQNKLAV” is -1.54.
The figure for “HMSDIIVQGNRRLDTDLIITDSQIREIGTDEKSLSLAVKNLYKTGYFENVQIFKDNSVVFINVKENQ” is -0.358; for “HMSDIQKGTQINLVNEPLYVSSKTSIVSTYKTGTYYTWGFEANNRIAITNKLENIGVKGQVTGWINKP” it is 0.0239.
To “HMSDKFNALWIILNKLDKKEKVTARSLMEDLEVSERSVYRYITTLQVAGFPVDYDRAVNSYVFSDGYTLK” belongs -2.16; to “HMSDKLTLPVQINGVFRYTIEINPSMQKDEIIDLVKNEERTAKYKQDKEIKNVIVVPGKIVNIII”, 0.22; to “HMSDLPLLEHARQNLSDDEFRILELTTIYGYRRVEVAKMLGEPISTINWKYNKLIKKVKTFYGEVYN”, -0.567.
On to “HMSDLVATKEQVVEAYKYGLGLGLDNSTLKMLLFDIRGEDVADQDKISDGMTVSEIEIWKEGMRTIAEEYL”, for which the “soluble fraction (log2)” value was -1.07.
In the case of “HMSDMIGQNIRRLRTEKQMTQKALADKLFVTAQAVSRWENGEVEPSLSTVTEIARIFNVSADEILGI”, the “soluble fraction (log2)” value was -0.284.
The figure for “HMSDPDPAEQALLRQFMTRYAAYRRRGQHPAGAFRTASLEVFGQEPSGDLRDVIVDLESGLV” is -0.59; for “HMSDPELNDNEKKIYDIIFNKKSMDLTELKNLSELSNKQWDKGIKSLSKQDFVKVIKTEEALIVELV” it is -0.126.
The figure for “HMSDPSAQADALFNEGKTAEAFNVLLRLIEDSPEDQREDYRVRLLDLFRIAGNTPEVKAARRRLSALLM” is -0.101; for “HMSDRFVRIVMNDGTVKLGQMISEDADFIRLKTNNLGELNIPKYLVLDMMDLTRSEYVRLSISNAG” it is -0.426; for “HMSDSAFAEMRRELEALRNSNAEYERALSNFFPEAEDKALAAEAFYQNREYDELVAEREEANVIDGLKR” it is -0.815.
The figure for “HMSDSISLTLNGDLRRFRAHATIADLVRDIGLDPVKVAVERNLEIVSRSTLEDVVLADGDRLEIVHFV” is -2.67; for “HMSDSLVLTGVAYVDGKPVVTLFDKVKKESLVVTDQPNLKGWTLVEATQSSDIKRATAKVNIGGEPVSIRY” it is -0.162; for “HMSDTFENILQRLIKATGRKNASEMANALGLSPQSVYSAKTKGKIPPAWIFAAAERFNASADWIYFGY” it is -0.759.
With “HMSDTSAIEKIIDEVLSDESSQKAINDIKNGNEKVYGFLVGQVMKKSQGKANPGLVQKMLREKIAK”, the “soluble fraction (log2)” value worked out at 0.22.
Regarding “HMSDYKSALQEAVQTNKQSIEYVLIKESGPAHNKTFTFEVRIDNISYGVGTAKSKKEAEQIAAKDALDKLV”, the “soluble fraction (log2)” value is -0.103.
To “HMSDYVLLYSGLNTSDTTFLAYSFQEKGIRYKMPNPDEIEVRVQDVDQARRIAAGAQLGGQVS” belongs -0.297; to “HMSEEGTIPDVSGQDEASAQKALENAGFTNIKSEAVYSEEEQGTVIDTNPTAGTKVSKDTEITMQVSKGSE”, 0.108; to “HMSEEKLVFSIPDDIETMRIDKAIALETHLSRAQIAELFKENKILLNSKNSKRSEKVKPGDKISLEFIPKI”, -0.0612.
Consider “HMSEEVKSQPISILDLSTRASNGLKNEGIETIGELVKYSEDELLGLDKFGQNSLKEIKKKLEEIGLTLKEH”, for which the “soluble fraction (log2)” value was -0.0527.
As to “HMSEFLTIVRAVYSGLSRRKVAAMHKVSRNTVSLYLRQARDQGWLTLEDLEKLDDLTVSQGVS”, the “soluble fraction (log2)” value was -0.918.
The figure for “HMSEFVIPLAKYNKALYTQVSLGMRFRMLFETEDSGVRRYMGTITGIGDLDPIRWKNSHWRNLQV” is 0.22; for “HMSEHLTLVVSDEDAGHRVDQFLVSRLAHMTRSQIQKLIKDGQVTIDTKLVRASTTVHTDNIVTIEFPPAV” it is 0.314; for “HMSEKLTLEAANEAAGMRIDKWLAMQLPELSRSRIEALISGGGVVVNGKNPSKSLKLKGGEQIELEIPE” it is 0.108.
To “HMSELLIVGSEQDNTRLDRFLADQYEEYTRSFLQKLIDQGNVSINGISVKKSGIKLKENDEIAVTLPEPQ” belongs -0.588; to “HMSELPLTQKVAIVMVALGEEASGEVMKHLSDYEIEEITQAIAGLKNISVELMDQILEEYEQHLIAG”, -0.536.
